Target: T1, MtbHtpG (high-temperature protein G) (Mycobacterium tuberculosis H37Rv, UniProt P9WMJ7 1-647)
T1 construct: also called Chaperone htpG
T1 sequence: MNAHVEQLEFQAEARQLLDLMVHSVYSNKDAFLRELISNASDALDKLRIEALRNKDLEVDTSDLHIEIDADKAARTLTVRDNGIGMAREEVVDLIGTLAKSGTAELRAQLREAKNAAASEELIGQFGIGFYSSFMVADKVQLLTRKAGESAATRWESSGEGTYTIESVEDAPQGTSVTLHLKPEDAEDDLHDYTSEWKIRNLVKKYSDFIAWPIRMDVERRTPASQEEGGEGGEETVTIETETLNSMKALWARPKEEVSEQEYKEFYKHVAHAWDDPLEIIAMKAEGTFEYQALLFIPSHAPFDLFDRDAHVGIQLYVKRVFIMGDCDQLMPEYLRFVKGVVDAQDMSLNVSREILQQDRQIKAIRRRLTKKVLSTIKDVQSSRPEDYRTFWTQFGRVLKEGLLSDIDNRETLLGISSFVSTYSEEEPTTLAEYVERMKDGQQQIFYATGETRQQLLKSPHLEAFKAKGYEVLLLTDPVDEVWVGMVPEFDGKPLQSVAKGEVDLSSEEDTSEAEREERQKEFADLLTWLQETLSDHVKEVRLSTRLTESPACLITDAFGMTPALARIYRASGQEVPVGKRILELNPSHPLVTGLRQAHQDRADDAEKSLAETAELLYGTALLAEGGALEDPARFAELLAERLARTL
Assay: SPR
Conditions: both partners purified

B1: MtbCsm3 (natural protein)
chain: MTTSYAKIEITGTLTVLTGLQIGAGDGFSAIGAVDKPVVRDPLSRLPMIPGTSLKGKVRTLLSRQYGADTETFYRKPNEDHAHIRRLFGDTEEYMTGRLVFRDTKLTNKDDLEARGAKTLTEVKFENAINRVTAKANLRQMERVIPGSEFAFSLVYEVSFGTPGEEQKASLPSSDEIIEDFNAIARGLKLLELDYLGGSGTRGYGQVKFSNLKARAAVGALDGSLLEKLNHELAAV
For B1, the Kd was 59.4 nM, the koff was 0.000914 s⁻¹ and the kon was 15400 M⁻¹ s⁻¹.
